Test: yeast display, Sf9 membrane polyspecificity reagent, FACS + sequencing; frameworks hold sequencing errors
In short: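 Nanobodies from a synthetic yeast display library (Saccharomyces cerevisiae BJ5465), induced 36–48 hours with galactose, were stained 1 hour at 4 °C with 10% biotinylated, detergent-solubilized Sf9 membrane reagent, enriched on streptavidin microbeads, then FACS-sorted. Anti-HA (expression) and streptavidin (reagent binding) fluorescence set low and high (top ~1%) gates. Polyreactivity labels come from the gate of origin. Genes were colony-PCR amplified, MiSeq 2 × 250 sequenced and filtered by CDR length.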

Row | Sequence | polyreactivity (PSR sort gate)
1 | QDQLVESGVGLVQAGGSLRLSCAASGYIFLLYDMGWYRQAPGKEREMVATITSGGGTYYADSVKGRVTISRDNAKNTVYLQMNSLIPEDTAVYYCNADLYRWTGRSYWDKHGSWGQGTQVTVSS | low polyreactivity
2 | QDQLVESRGGLVQAGGSLRLSCAASGRTFYINAMGWYRQAPGKERELVAAISWGGGRTYYADSVKGRFTISRDNAKNTVYLQMNSLKPEDTAVYYCAAEVAYYKYDYWGQGTQVTVSS | high polyreactivity
3 | QDQLVESRGGLVQAGGSLRLSCAASGSIFTVNAMGWYRQAPRKERELVASITWRSGSTYYPDSVKGRFTISRDNAKNSVYLQMNRLKPEDTAFYYCNADSDYPYYPGNFDYWGQGTQVTVSS | low polyreactivity
4 | QDQLVESRGGLVQAGGSLRLSCAAYGRTFIPYAMGWNSQATGKERELVAAITVRGSSTYYADSVKGRFTISRDNAKNTVYFQMNSLKPEDTAIYYCATDRRYRAFYYWGQGTQVTVSS | high polyreactivity
5 | QDQLVESRGGLVQAGGSLSISCAASGFTFRYYAMGWYRQAPGKERELVAGISWRGGSTNYADSVKGRFTISRDNAKNTVYFQMNSLNPDDSEVYSCNAVSYSFPILRVRPTWYDYWGQGTQVTVSS | high polyreactivity
6 | QDQLVESVGGLNQAGGSLRLSCAASGIIFYPYTIGWYRQAPGKERELVAAIRQSGTSTYYADSVKGRFTISRDNAKNTVYLQMNSLKPEDTAVYYCNVEPYQPPGHDRSYAYDYWGQGTQVTVSS | low polyreactivity
7 | QDQLVESVGGLVQAGCSLRLSSAASVSIFVIYAMGWYRQAPGNERELVAAISWNGGSTFYADSVKGRITISRDNAKNTVYLQMNSQKPEDTAVYYCNTVASYYRWKSYYYWGQGTQVTVSS | high polyreactivity
8 | QDQLVESVGGLVQAGGSLPLSSAASGLTFKRNAMRWYSQAPGKERELVAAIRYSTDSTNYADSVKGRFTISRDNAKNTVYCQMNSLKPESTAVYYCAKDKQDYEYWGQGTQVTVSS | low polyreactivity
9 | QDQLVESVGGLVQAGGSLRLSCAASAITFGNYAMGWYRQAPGKERELVAGISWSGSSTYYADSVKGRFTISRDNSKNTVYLQMNSLKPEDTAVYYCNAVQPARFVGGFGTGVDYWGQGTQVTVSS | high polyreactivity
10 | QDQLVESVGGLVQAGGSLRLSCAASGLTISQNAMGWYRQAPGKERELVAAITRSGSTTHYADSVKWRFTISRDNAKNTVYLQMNSLKPEDTAVYYCAAAHSYYGHYYYWGQGTQVTVSS | high polyreactivity
11 | QDQLVESVGGLVQAGGSLRLSCAASGRIFWVNAMGWSRQAPGKERELVAAISWTSGSTYYADSVKGRFTISRDNAKNTVYLQMNSLKPEDTAVYYCNKVQSGEYDYWGQGTQVTVSS | high polyreactivity
12 | QDQLVESVGGLVQAGGSLRLSCAASGSTIVRNAMGWYRQPPGKERELVAAISVDSGSTYYADSVKGRFTISRDNAKNTVYLQMNSLKPEDTAVYYCAADGTRGQEYDYWGQGTLVTVSS | low polyreactivity
13 | QDQLVESVGGLVQAGGSLRLSCAASVRIFYWNAIGWYRQATGKESELVATITRGDRTYYADSVKGRFTISRDNAKNTVYLQMNSLKPEDTAVYYCARSSNPYFYGMYYWGQGTQVTVSS | high polyreactivity
14 | QDQLVESVGGLVQAGVSLPLSCAASGIIFLYNDMGWFRQARGKAREFVATLSRSGGSTYYADSVKGRVTISRDNAKNTVYLQMNRLKPEETAVYYCAADEDSGYGYWGQGTQVTVTS | low polyreactivity
15 | QDQLVESWGALVQAGGRLRLICAASGTIFSRNTMRSYRQAPGKDRELVAGISSSGSRTYYADSVKGRFTISRDNAKNTVYLQMNSLKPEDNAVYYCAAEHQRSRGRRYYIGYDYWGQGTQVTVSS | low polyreactivity
16 | QDQLVETGGGLVQAGGSLRLSCSASGSIFAAYTMGWYRQAPGKECELVATISSGGSTYYADSVKGRFTISRDNAKNTVYLQMNSLKPEDTAVYYCAAVAYTYTEYEYWGQGTQVTVSS | low polyreactivity
17 | QDQLVQSGGGIVQAGGSLRLSCAASGSTFILYAMGWYRQAPGKESELVAAISTSGGSTYYADSVKGRVTISRDNAKNTVYFHMNSLKPDDTAVYYCIAGLSVTHGTSIPFRKYEYWGQGTQVNVSS | low polyreactivity
18 | QDQRVDSGGGLVQAGGSLRLSCTAYGFIFGWYAMGWYRQSPGKASQLVAPISQSVGSTYYADSVKGRFTISRDNAKNTVYLQMNSLKPEDSAVYYCNAVGRGSRSRLSSRAGGGDYWGQGTQVTVSS | high polyreactivity
19 | QDQRVESGGGIDQAGGSLRLSCAASGSTVDFNAMGWYRQAPGTERELVAAITYSGGSTYYADSVKGRFTISRDNAKNTVYLQMNSLKPQDTAVYYCAAEDVYPGSIDMDYWGQGTQVSVSS | low polyreactivity
20 | QDQVVESGGGLVQAGGSVRLSCADSGSIFWRNAMGWYRQAPGKEREWVAAITSGGTTNYADSVKGRFTLSRDNAKNTVYLQLNTQKPEVTAGDYCATGASDLRRYDHPHSDVDYWGQGTQVTVSA | low polyreactivity
21 | QEHLVESGGGLVQAGGTLRLSCAASGGTFYVNDMGWYRQPPGKESELVATITYSGTSTYYADSVTGSFTISRDNAKNTVYLQMNSLKPEDTAVYYGATDVLLYLEPVNLDYCGQGTQVTVSS | low polyreactivity
22 | QEQLEESGGGVVQAGGSLRLSCAAYGSIFYAYSMGWYRQAPGKEREFVAASSKRGGSTYYSDSVKGRFTISRDNEKNTVYLQMNSLKPEDTAVYYCYVGYGYWRGVKQSYDRFDYWGQGTQVTVSS | high polyreactivity

Row | Sequence | polyreactivity (PSR sort gate)
23 | QEQLLESGGGLVQAGGSLRLSCAASGYISSHIMSWYRQAPGKEREFVDTITDGGTTNYADSVKGRFTISRDNAKNTVYLQMNSLKPEDTAVYYCAAVATYSYHFGYWGHGTQVTVSS | high polyreactivity
24 | QEQLQDSGGGLVQAGGSLRLSCAASGYISSLAAMGWYRQAPGKERDLVAGNDLGTITNYADSVKGRLTISRDNAKNNVYLQMNSLKPEDTEVYYCAKYRWYGVYWGQGTHVTVSS | low polyreactivity
25 | QEQLQESAGGLVQACGSQRLSCAASGSISEGQDMGSYRRAPGKEREFVAGIAPGATTYYADSVKGRFTISRDNAKKTVYRQMNSLKAEDTAVYYCAARSVTETDHDYWGQGTQVTVSS | low polyreactivity
26 | QEQLQESGGGLVHAGGSLRLSCAASGSISQAWYMGWYRQAPGKERELVAAINGGAITYYADSVKGRFSISRDNAKNTVYLPMNSLTPEDTAVYYCAVDQYSEAYYDYWGQGTQATVSS | high polyreactivity
27 | QEQLQESGGGLVKAGGSLRLSCAASGNISNHNDMGWYRQAPGKEREFVAGITAGGITNYADSVKGRFTISRDNAKNTVYLQMNSLKPEDTAVYYCAAYPDYAKSYGYWGQGTQATVSS | low polyreactivity
28 | QEQLQESGGGLVQAGGSLRLSCAASGTITVLYKMGWFRQAPGKEREFVASINYGTSTYYADSVKGRFTVSRDSAKNTVYLQMNSLKPEDTAVYYCAAAYRWQDVYRYWGQGTQVTVSS | low polyreactivity
29 | QEQLQESGGGQVQAGGSLLLSCAASGNIIRYYYMGWYRQAPGKERELVAAITYGTSTNYADSVKGRFTISRDNAINTVYLQMNSLKPEDTAVYYCAVDVNYGDPLDNWGQGTQVTVSS | high polyreactivity
30 | QEQLVESGGGLVQAGGSLRLSCAASGFIFPGYTMGWYRQAPGKERELVAAISRGSSTFYADSVKGRFTISRDNAKNTVYLQMNSLKPEDTAFYYCNTRVYAITLYDYWGQGTQVTVSS | low polyreactivity
31 | QEQLVESVGGLVQARGSLRLSGAASGYTFKYNALGWYRPAPGKERELVAAITSGGSTNYADSVKGRFTISRDNAKNTVYLQMNSLKPEDTAVYYCAAAQPRTNAYRVGSWGQGTQVTVSS | high polyreactivity
32 | QEQQQESGGGLVQAGGSLRLSCSSSGSIILFYTMGWYRHAPVKERECVAGITLGTTTYNADSVKGRFTISRDNVKISVYLQMNSLKPEDTAVDYCAVAVGHYTEFWYWGQGTQVTMSS | high polyreactivity
33 | QFHHVESGGGLVQAGCSLRLSCGASGLTSAIYVMGLYRQAPGKEREFVADITWNAGSTYYADSVQGRFTISRDNAKNTVYVEMKSLKPEDTAVYYCNAYIVSGFYEYDFWGQGTQVTVSS | high polyreactivity
34 | QFHLLESGGRLDQAGGSLRLSCAASGIIFRGNAMGWYIQAPGKERELVAAISSGGSTYYADTVKGSFTISRDNAKNTVYLKMNCLKPEDTAVYYCNARWYFWGTLYGSWGQGTQVTVSS | high polyreactivity
35 | QFHLVDSGGGLVQAGGRLRLSCPASGGICYQYAMGWYRQAPGKEREFVAAISRRGGSTYYADSVKGRFTISRDNAKNTVYLQMNSLKPEDTAVYYCAAAPSTRGGYQQMDSWGQGTQVTVSS | high polyreactivity
36 | QFHLVESGGGLVQAGGSLRLSCSASGLTFYQNSLGWSRQAPGKEMELVAAIRWGGGSTYYADSVKGRFTISRDNAKNTVYLQMNCLKPVDTAVYYCAAEYYGWPYDYWGQGTQVTVSS | high polyreactivity
37 | QFHLVESGRGLVQAGGSLRLSCAASGRIFCVNAMGWYRQAPGKERELVADISSGGSTNYADSVKGRFTISRDNAKNTVYLQMNSLKPEDTAFYYCNARFRFRYKFPSRNSWGQGTLVTVSS | high polyreactivity
38 | QFQHVESGGCLVQAGGSLRLSSAASGYMFYWYDMGWYRQAPGKERELVAVITSSGLSTYYADSVKGRFTISRDNAKNTVYLQMNSLKPEDTAVYYCNKANTQYSYYFYDYWGQGTQVTVSS | low polyreactivity
39 | QFQIVDSVRGLVQAGGSLRLSCAASGITFDFYAIGWYRQAPGKERELVAAISYSGTSTSYADSVKGRFTISRDNAKNTVYLQMNSLKAEDTAVYYCNARIGWTHSYYELDYWGQGTQVTVSS | low polyreactivity
40 | QFQLEESGGGIVQAGGSLRLSCAASGSTFYYNAMGWYRQAPGKERDLVAAITGSGTGTNYADSVKGRFTISRDNAKITVYLQMNSLKTEDTAVYYCAADYVWRGDPINSYLSWYVYWGQGTQVTVSS | low polyreactivity
41 | QFQLEESGGGLVQAGGSLRLSCAASGFTFFTYAMGWYRQAPGKERELVAAITTGGSTNYADSVKGRFTISRDNAKNTVYLQMNSLKPEDTAVYYCAVYGYVYGSAVQYDYWGQGTQVTVSS | low polyreactivity
42 | QFQLEESGGGLVQAGGSLRLSCAASGSIFKGYTMGWYRQAPRKVREFVASMSRRGGSTYYADSVKGRFTISRDYAKNTVYLQMNSLKPEDTAVYYCAKDYGKAYDDWGQGTQVTVSS | high polyreactivity
43 | QFQLEESGGGLVQAGGSLRLSCADSGIIFFFYAMGWYRQAPGKERELVAAISDDGVSTDYADSVKGRFTISRDNAKNTVYLQMNSLKPEDTAVYYCAAKTERVYPWFSFGYWGQGTQVTVSS | low polyreactivity

Reference: the nanobody polyreactivity screen of Harvey et al. (2022)
